According to PMC4555817:

Biological target: GST-tagged full-length cortactin (UniProt Q60598)
Test: pull-down

Chain of UniProt Q60598 (Q60598 whole entry): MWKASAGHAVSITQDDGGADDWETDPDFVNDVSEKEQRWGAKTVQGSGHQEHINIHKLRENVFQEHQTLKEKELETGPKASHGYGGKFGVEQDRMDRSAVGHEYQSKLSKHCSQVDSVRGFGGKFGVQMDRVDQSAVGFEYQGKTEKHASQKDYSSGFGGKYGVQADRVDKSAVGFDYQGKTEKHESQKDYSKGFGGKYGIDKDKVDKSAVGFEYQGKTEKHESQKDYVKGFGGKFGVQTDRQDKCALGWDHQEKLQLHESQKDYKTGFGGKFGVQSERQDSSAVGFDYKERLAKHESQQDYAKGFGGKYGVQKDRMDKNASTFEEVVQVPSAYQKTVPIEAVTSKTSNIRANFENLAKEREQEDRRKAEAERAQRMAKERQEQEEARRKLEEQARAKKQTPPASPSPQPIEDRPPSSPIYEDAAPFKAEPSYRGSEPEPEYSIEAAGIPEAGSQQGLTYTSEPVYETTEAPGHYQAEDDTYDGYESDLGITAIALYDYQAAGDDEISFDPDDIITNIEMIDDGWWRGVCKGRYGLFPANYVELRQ

Ki: 461 nM
Substance: actin filaments (from UniProt P68139 1-377) (natural protein)
